The target of series [1] is 43S pre-initiation complex (40S, eIF1, eIF1A, ternary complex; no mRNA) (S. cerevisiae) (UniProt P32911). The experiment in a line: native gel or EMSA; gel shift monitoring [35S]-Met-tRNAi; 43S PICs without mRNA (1 µM eIF1, 1 µM eIF1A, 200 nM eIF2, 1 mM GDPNP•Mg2+, 2 nM Met-tRNAi, 30 nM 40S); eIF3 titrated 30-500 nM; 1X Recon buffer (30 mM HEPES-KOH pH 7.4, 100 mM KOAc, 3 mM Mg(OAc)2, 2 mM DTT), 26 °C, 2 h; apparent KD, Hill equation; single experiments; apparent affinities ≤ 30 nM likely upper limits.

For series [2], the system named is yeast 43S PIC: 40S+eIF1+eIF1A+eIF2 (Met-tRNAi TC); for mRNA recruitment also eIF5, eIF4A, eIF4B, eIF4E-eIF4G;eIF3 (b prt1-1) (Saccharomyces cerevisiae;Saccharomyces cerevisiae). The experiment in a line: EMSA. To be noted: 30 mM HEPES-KOH pH 7.4, 100 mM KOAc, 3 mM Mg(OAc)2, 2 mM DTT, 1 mM GDPNP, 26 C, 2 h, native 4% THEM gel; for binding signal: measurement 1, m7G cap.

For series [3], the system named is yeast 43S PIC: 40S+eIF1+eIF1A+eIF2 (Met-tRNAi TC); for mRNA recruitment also eIF5, eIF4A, eIF4B, eIF4E-eIF4G;eIF3 (b rnp1) (Saccharomyces cerevisiae;Saccharomyces cerevisiae). Briefly: EMSA. As to conditions: 30 mM HEPES-KOH pH 7.4, 100 mM KOAc, 3 mM Mg(OAc)2, 2 mM DTT, 1 mM GDPNP, 26 C, 2 h, native 4% THEM gel; for binding signal: measurement 1, m7G cap.
Series [4] deals with yeast 43S PIC: 40S+eIF1+eIF1A+eIF2 (Met-tRNAi TC); for mRNA recruitment also eIF5, eIF4A, eIF4B, eIF4E-eIF4G;eIF3 a/b/c sub-complex (Saccharomyces cerevisiae;Saccharomyces cerevisiae). Briefly: EMSA. As to conditions: 30 mM HEPES-KOH pH 7.4, 100 mM KOAc, 3 mM Mg(OAc)2, 2 mM DTT, 1 mM GDPNP, 26 C, 2 h, native 4% THEM gel; for binding signal: measurement 1, m7G cap. (In general: A gel shift assay detects complexes by their altered migration in electrophoresis.)

Series [5] addresses 48S pre-initiation complex (40S, eIF1, eIF1A, ternary complex, AUG-containing model mRNA) (S. cerevisiae) (UniProt P32911). The experiment in a line: native gel or EMSA; gel shift monitoring [35S]-Met-tRNAi; 48S PICs with 1 µM uncapped AUG-containing model mRNA (1 µM eIF1, 1 µM eIF1A, 200 nM eIF2, 1 mM GDPNP•Mg2+, 2 nM Met-tRNAi, 20 nM 40S); eIF3 titrated 30-500 nM; 1X Recon buffer, 26 °C, 2 h; apparent KD, Hill equation; single experiments; apparent affinities ≤ 30 nM likely upper limits.

Series [6] has as its system yeast 43S PIC: 40S+eIF1+eIF1A+eIF2 (Met-tRNAi TC); for mRNA recruitment also eIF5, eIF4A, eIF4B, eIF4E-eIF4G (Saccharomyces cerevisiae). Briefly: EMSA. To be noted: no eIF3, measurement 1, m7G cap, 30 mM HEPES-KOH pH 7.4, 100 mM KOAc, 3 mM Mg(OAc)2, 2 mM DTT, 1 mM GDPNP, 26 C, 2 h, native 4% THEM gel.
In series [7] the test system is yeast 43S PIC: 40S+eIF1+eIF1A+eIF2 (Met-tRNAi TC); for mRNA recruitment also eIF5, eIF4A, eIF4B, eIF4E-eIF4G;eIF3 (a Box37) (Saccharomyces cerevisiae;Saccharomyces cerevisiae). Briefly: EMSA. As to conditions: measurement 1; m7G cap; 30 mM HEPES-KOH pH 7.4, 100 mM KOAc, 3 mM Mg(OAc)2, 2 mM DTT, 1 mM GDPNP, 26 C, 2 h; native 4% THEM gel.
Series [8] deals with yeast 43S PIC: 40S+eIF1+eIF1A+eIF2 (Met-tRNAi TC); for mRNA recruitment also eIF5, eIF4A, eIF4B, eIF4E-eIF4G;eIF3 (a Box6) (Saccharomyces cerevisiae;Saccharomyces cerevisiae). The experiment in a line: EMSA. To be noted: measurement 1; m7G cap; 30 mM HEPES-KOH pH 7.4, 100 mM KOAc, 3 mM Mg(OAc)2, 2 mM DTT, 1 mM GDPNP, 26 C, 2 h; native 4% THEM gel.
The subject of series [9] is yeast 43S PIC: 40S+eIF1+eIF1A+eIF2 (Met-tRNAi TC); for mRNA recruitment also eIF5, eIF4A, eIF4B, eIF4E-eIF4G;eIF3 (a H725P) (Saccharomyces cerevisiae;Saccharomyces cerevisiae). Briefly: EMSA. To be noted: measurement 1; m7G cap; 30 mM HEPES-KOH pH 7.4, 100 mM KOAc, 3 mM Mg(OAc)2, 2 mM DTT, 1 mM GDPNP, 26 C, 2 h; native 4% THEM gel.
Series [10] concerns yeast 43S PIC: 40S+eIF1+eIF1A+eIF2 (Met-tRNAi TC); for mRNA recruitment also eIF5, eIF4A, eIF4B, eIF4E-eIF4G;eIF3 (a R731I) (Saccharomyces cerevisiae;Saccharomyces cerevisiae). The experiment in a line: EMSA. To be noted: measurement 1; m7G cap; 30 mM HEPES-KOH pH 7.4, 100 mM KOAc, 3 mM Mg(OAc)2, 2 mM DTT, 1 mM GDPNP, 26 C, 2 h; native 4% THEM gel.
The test system of series [11] is yeast 43S PIC: 40S+eIF1+eIF1A+eIF2 (Met-tRNAi TC); for mRNA recruitment also eIF5, eIF4A, eIF4B, eIF4E-eIF4G;eIF3 (a delta8) (Saccharomyces cerevisiae;Saccharomyces cerevisiae). The experiment in a line: EMSA. To be noted: measurement 1, m7G cap, 30 mM HEPES-KOH pH 7.4, 100 mM KOAc, 3 mM Mg(OAc)2, 2 mM DTT, 1 mM GDPNP, 26 C, 2 h, native 4% THEM gel.
Series [12] relates to yeast 43S PIC: 40S+eIF1+eIF1A+eIF2 (Met-tRNAi TC); for mRNA recruitment also eIF5, eIF4A, eIF4B, eIF4E-eIF4G;eIF3 (c Box12-SPW) (Saccharomyces cerevisiae;Saccharomyces cerevisiae). Briefly: EMSA. To be noted: measurement 1; m7G cap; 30 mM HEPES-KOH pH 7.4, 100 mM KOAc, 3 mM Mg(OAc)2, 2 mM DTT, 1 mM GDPNP, 26 C, 2 h; native 4% THEM gel.
For series [13], the system named is yeast 43S PIC: 40S+eIF1+eIF1A+eIF2 (Met-tRNAi TC); for mRNA recruitment also eIF5, eIF4A, eIF4B, eIF4E-eIF4G;eIF3 (c GAP85) (Saccharomyces cerevisiae;Saccharomyces cerevisiae). The experiment in a line: EMSA. As to conditions: measurement 1; m7G cap; 30 mM HEPES-KOH pH 7.4, 100 mM KOAc, 3 mM Mg(OAc)2, 2 mM DTT, 1 mM GDPNP, 26 C, 2 h; native 4% THEM gel.
The test system of series [14] is yeast 43S PIC: 40S+eIF1+eIF1A+eIF2 (Met-tRNAi TC); for mRNA recruitment also eIF5, eIF4A, eIF4B, eIF4E-eIF4G;eIF3 (c delta60) (Saccharomyces cerevisiae;Saccharomyces cerevisiae). Briefly: EMSA. To be noted: measurement 1; m7G cap; 30 mM HEPES-KOH pH 7.4, 100 mM KOAc, 3 mM Mg(OAc)2, 2 mM DTT, 1 mM GDPNP, 26 C, 2 h; native 4% THEM gel.
Series [15] deals with yeast 43S PIC: 40S+eIF1+eIF1A+eIF2 (Met-tRNAi TC); for mRNA recruitment also eIF5, eIF4A, eIF4B, eIF4E-eIF4G;eIF3 (g KLF) (Saccharomyces cerevisiae;Saccharomyces cerevisiae). The experiment in a line: EMSA. To be noted: measurement 1; m7G cap; 30 mM HEPES-KOH pH 7.4, 100 mM KOAc, 3 mM Mg(OAc)2, 2 mM DTT, 1 mM GDPNP, 26 C, 2 h; native 4% THEM gel.
For series [16], the system named is yeast 43S PIC: 40S+eIF1+eIF1A+eIF2 (Met-tRNAi TC); for mRNA recruitment also eIF5, eIF4A, eIF4B, eIF4E-eIF4G;eIF3 (i Q258R) (Saccharomyces cerevisiae;Saccharomyces cerevisiae). Briefly: EMSA. As to conditions: measurement 1; m7G cap; 30 mM HEPES-KOH pH 7.4, 100 mM KOAc, 3 mM Mg(OAc)2, 2 mM DTT, 1 mM GDPNP, 26 C, 2 h; native 4% THEM gel.
In series [17] the test system is yeast 43S PIC: 40S+eIF1+eIF1A+eIF2 (Met-tRNAi TC); for mRNA recruitment also eIF5, eIF4A, eIF4B, eIF4E-eIF4G;eIF3 WT (a/b/c/i/g) (Saccharomyces cerevisiae;Saccharomyces cerevisiae). Briefly: EMSA. To be noted: measurement 1; m7G cap; 30 mM HEPES-KOH pH 7.4, 100 mM KOAc, 3 mM Mg(OAc)2, 2 mM DTT, 1 mM GDPNP, 26 C, 2 h; native 4% THEM gel.
The mark [18] stands for this setting: no mRNA, ~3 fold weaker than WT, mean of 2, column assigned from text, Met-charged.

Values joined by “and” are separate entries in the source; they are usually repeats but may differ in a detail not shown here. Equal entries are not always repeated.

Consider “eIF3 variant R731I (eIF3a/Tif32 CTD) (from UniProt P38249 1-964; P06103 1-763; P32497 1-812; P40217 1-347; Q04067 1-274) (complex)”, for which, in series [1], the Kd came out at 126 nM.
With initiator tRNAiMet, the Kd worked out at 42.3 nM in series [2] (setting [18]); 28.1 nM in series [3] (no mRNA, ~2 fold weaker than WT, mean of 2, column assigned from text, Met-charged); 47.8 nM in series [4] (setting [18]).
Consider “eIF3 (wild type) (from UniProt P38249 1-964; P06103 1-763; P32497 1-812; P40217 1-347; Q04067 1-274) (complex)”, for which the Kd in [1] is 43 nM and 24 nM.
“eIF3a/b/c sub-complex lacking the i and g subunits (from UniProt P38249 1-964; P06103 1-763; P32497 1-812)”: the Kd is 106 nM and 111 nM in series [5]; 87 nM and 98 nM in [1].
On to 3'5-AUG model mRNA, for which the binding signal in [6] (almost no recruitment) was found to be 1.04 % recruited; in [7], 67.2 % recruited; in series [8] it was 73.3 % recruited; in [9] it was 77.1 % recruited; in series [10] it was 73.6 % recruited; in series [11] (text: no recruitment) it was 5.17 % recruited. Further, the binding signal in [2] stood at 77.9 % recruited; in [3], 66.2 % recruited; in series [12], 75.1 % recruited; in series [13], 81 % recruited; in series [14], 78.3 % recruited; in series [15] it was 72.6 % recruited. The binding signal is 71 % recruited in [16], 78.9 % recruited in series [17] and 50.3 % recruited in [4].
With 5'11-AUG model mRNA, the binding signal in [6] (columns as in Fig 5) was 90.9 % recruited; in [8] it was 97.8 % recruited; in series [9], 94.6 % recruited; in series [10], 91.8 % recruited; in [17] it was 97.9 % recruited; in [4], 66.7 % recruited.
Take 3'17-AUG model mRNA: the binding signal in series [6] was 71.4 % recruited; in [11], 89.9 % recruited; in [17], 97.2 % recruited.
On to “eIF3 variant ∆60 (eIF3c/Nip1 CTD) (from UniProt P38249 1-964; P06103 1-763; P32497 1-752; P40217 1-347; Q04067 1-274) (complex)”, for which the Kd is 41 nM and 52 nM in [5]; 27 nM and 21 nM in series [1].
For the substance 5'5-AUG model mRNA, the binding signal in [6] is 68.2 % recruited; in series [7] it was 82.5 % recruited; in series [8], 62.5 % recruited; in series [9], 58.2 % recruited; in series [10] it was 57.7 % recruited; in series [11], 91.7 % recruited. The binding signal in [2] is 79.9 % recruited; in series [3] it was 69.4 % recruited; in series [12] it was 85.3 % recruited; in [13], 80.1 % recruited; in series [14], 87.9 % recruited; in [15] it was 84.7 % recruited. Further, the figures for the binding signal in series [16], in series [17] and in series [4] were 80.3 % recruited, 84.1 % recruited and 32.1 % recruited, respectively.
As to mid-AUG model mRNA, the binding signal came out at 88.2 % recruited in [6]; 96.8 % recruited in series [7]; 97.1 % recruited in series [8]; 93.3 % recruited in series [9]; 93.8 % recruited in series [10]; 95.9 % recruited in series [11]. Further, the binding signal in series [2] turned out to be 94.6 % recruited; in series [3], 77.8 % recruited; in [12] it was 96.1 % recruited; in [13], 97.7 % recruited; in [14], 96.9 % recruited; in series [15], 98.3 % recruited. The binding signal was 97.7 % recruited in series [16], 98.5 % recruited in series [17] and 81.6 % recruited in series [4].

The values above are taken from PMC5153249.
